Experimental data published in patent US20250171534A1 (D2M BIOTHERAPEUTICS, published 2025).
Several values for one entry are separate records, joined by “and”; a condition that tells them apart may be missing. Equal entries are not always repeated.

How the values were obtained:
[1] = biological target: T1, LILRB3 expressed on cells (human, UniProt O75022 24-631); assay: flow cytometry on CHO-LILRB3 cells
T1 construct: whole, on cells; Expressed with a GFP tag from the bought plasmid; also called human LILRB3; CHO-LILRB3

[2] = biological target: T2, LILRB1-ECD-HIS (SinoBiological Cat #: 16014-H02H) (human, UniProt Q8NHL6 24-461); assay: BLI (Gator Prime), antibody on anti-hIgG Fc probe, monomeric LILRB1-ECD-HIS in solution
T2 construct: Bought protein; also called monomeric antigen LILRB1-ECD-HIS; not shown: His tag
T2 sequence (Q8NHL6 other isoform, or with tags, fused parts or gaps H02H H02H): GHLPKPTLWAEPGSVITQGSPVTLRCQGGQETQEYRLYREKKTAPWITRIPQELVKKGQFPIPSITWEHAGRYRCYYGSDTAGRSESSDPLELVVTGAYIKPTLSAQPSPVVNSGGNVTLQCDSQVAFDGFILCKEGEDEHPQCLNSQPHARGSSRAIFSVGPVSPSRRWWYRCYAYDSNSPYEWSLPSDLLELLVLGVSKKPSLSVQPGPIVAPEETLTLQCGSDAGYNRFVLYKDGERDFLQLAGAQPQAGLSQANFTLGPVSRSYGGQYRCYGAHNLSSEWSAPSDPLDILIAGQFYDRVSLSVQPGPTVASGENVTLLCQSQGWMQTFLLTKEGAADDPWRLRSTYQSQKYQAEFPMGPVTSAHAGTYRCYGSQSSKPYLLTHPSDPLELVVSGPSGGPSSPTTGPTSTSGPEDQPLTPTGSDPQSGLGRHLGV

[3] = biological target: T3, human LILRB2 expressed on cells (human, UniProt Q8N423 22-597); assay: flow cytometry, Jurkat-LILRB2 cells; blocked ligand: APC HLA-G monomer tetramer
T3 construct: In 293T cells it was expressed from pCMV3-LILRB2-GFP; also called CHO-LILRB2; Jurkat-LILRB2
T3 sequence (Q8N423 other isoform, or with tags, fused parts or gaps limits assumed): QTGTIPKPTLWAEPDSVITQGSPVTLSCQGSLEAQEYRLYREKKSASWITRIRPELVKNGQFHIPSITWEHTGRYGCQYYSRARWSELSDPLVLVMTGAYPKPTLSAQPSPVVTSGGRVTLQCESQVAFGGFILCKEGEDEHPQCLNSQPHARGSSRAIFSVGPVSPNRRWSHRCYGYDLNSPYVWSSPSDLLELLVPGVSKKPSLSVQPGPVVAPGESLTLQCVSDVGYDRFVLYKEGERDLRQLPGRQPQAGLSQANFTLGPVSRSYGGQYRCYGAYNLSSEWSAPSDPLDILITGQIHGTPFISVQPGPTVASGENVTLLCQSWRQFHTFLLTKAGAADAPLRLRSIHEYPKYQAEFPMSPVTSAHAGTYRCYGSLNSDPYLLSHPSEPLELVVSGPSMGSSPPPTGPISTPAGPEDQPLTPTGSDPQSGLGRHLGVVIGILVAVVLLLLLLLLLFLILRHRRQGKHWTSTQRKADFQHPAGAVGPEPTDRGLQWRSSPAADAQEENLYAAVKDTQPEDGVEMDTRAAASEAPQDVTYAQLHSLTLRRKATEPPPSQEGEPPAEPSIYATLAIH

[4] = biological target: T4, LILRA2 expressed on 293T cells (UniProt Q8N149 24-483, limits assumed); assay: flow cytometry on 293T cells transiently expressing LILRA2, APC anti-human Fc; gMFI as fold to IgG staining
T4 construct: whole, on cells; GFP-tagged, transient
T4 sequence (Q8N149 24-483 limits assumed): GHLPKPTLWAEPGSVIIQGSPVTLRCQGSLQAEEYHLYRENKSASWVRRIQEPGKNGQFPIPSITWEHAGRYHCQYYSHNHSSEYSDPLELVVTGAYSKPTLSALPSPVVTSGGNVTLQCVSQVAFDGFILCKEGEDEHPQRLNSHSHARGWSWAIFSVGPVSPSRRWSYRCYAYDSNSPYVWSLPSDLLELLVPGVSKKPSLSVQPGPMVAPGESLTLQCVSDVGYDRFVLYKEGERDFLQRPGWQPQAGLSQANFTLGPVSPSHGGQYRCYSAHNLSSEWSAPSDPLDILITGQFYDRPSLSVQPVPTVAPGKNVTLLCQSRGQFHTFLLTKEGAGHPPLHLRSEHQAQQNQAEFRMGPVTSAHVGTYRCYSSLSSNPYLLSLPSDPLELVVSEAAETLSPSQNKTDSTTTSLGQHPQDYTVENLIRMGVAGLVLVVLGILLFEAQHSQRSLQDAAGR

[5] = biological target: T5, LILRB2-ECD-HIS (SinoBiological Cat #: 14132-H02H) (human, UniProt Q8N423 22-460); assay: BLI (Gator), trace labelled 5 µg/mL; unit taken from the Average KD line
T5 construct: Bought protein; also called monomeric antigen LILRB2-ECD-HIS; not shown: His tag
T5 sequence (Q8N423 other isoform, or with tags, fused parts or gaps H02H H02H): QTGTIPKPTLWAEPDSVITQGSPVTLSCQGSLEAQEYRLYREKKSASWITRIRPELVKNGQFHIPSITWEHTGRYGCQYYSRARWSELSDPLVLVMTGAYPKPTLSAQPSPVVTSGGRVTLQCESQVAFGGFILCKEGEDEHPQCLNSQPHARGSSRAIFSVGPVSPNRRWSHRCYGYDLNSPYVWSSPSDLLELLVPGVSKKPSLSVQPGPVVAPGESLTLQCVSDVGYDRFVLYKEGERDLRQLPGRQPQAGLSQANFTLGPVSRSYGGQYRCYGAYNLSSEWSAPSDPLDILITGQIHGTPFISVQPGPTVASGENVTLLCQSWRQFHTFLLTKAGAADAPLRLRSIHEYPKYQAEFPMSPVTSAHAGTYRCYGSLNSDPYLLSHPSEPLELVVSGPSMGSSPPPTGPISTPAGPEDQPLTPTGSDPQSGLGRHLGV

[6] = biological target: T2, LILRB1-ECD-HIS (SinoBiological Cat #: …); assay: as above
[7] = biological target: T6, cynomolgus monkey putative LILRB2 (antigen of the Gator measurement) (cynomolgus monkey); assay: BLI (Gator), cyno RB2-his
T6 construct: also called cynomolgus monkey LILRB2

[8] = biological target: T1, LILRB3 expressed on cells; assay: flow cytometry on CHO-LILRB3 cells, non-linear fit of the curves of FIG. 26C
[9] = biological target: T2, LILRB1-ECD-HIS (SinoBiological Cat #: …); assay: BLI (Gator), trace labelled 0.5 µg/mL; unit taken from the Average KD line
[10] = biological target: T3, human LILRB2 expressed on cells; assay: flow cytometry, Jurkat-LILRB2 cells
[11] = biological target: T7, human LILRB1 expressed on cells (human, UniProt Q8NHL6 24-650); assay: flow cytometry, CHO-LILRB1 cells
T7 construct: In 293T cells it was expressed from pCMV3-LILRB1-GFP; also called CHO-LILRB1; Jurkat-LILRB1
T7 sequence (Q8NHL6 other isoform, or with tags, fused parts or gaps limits assumed): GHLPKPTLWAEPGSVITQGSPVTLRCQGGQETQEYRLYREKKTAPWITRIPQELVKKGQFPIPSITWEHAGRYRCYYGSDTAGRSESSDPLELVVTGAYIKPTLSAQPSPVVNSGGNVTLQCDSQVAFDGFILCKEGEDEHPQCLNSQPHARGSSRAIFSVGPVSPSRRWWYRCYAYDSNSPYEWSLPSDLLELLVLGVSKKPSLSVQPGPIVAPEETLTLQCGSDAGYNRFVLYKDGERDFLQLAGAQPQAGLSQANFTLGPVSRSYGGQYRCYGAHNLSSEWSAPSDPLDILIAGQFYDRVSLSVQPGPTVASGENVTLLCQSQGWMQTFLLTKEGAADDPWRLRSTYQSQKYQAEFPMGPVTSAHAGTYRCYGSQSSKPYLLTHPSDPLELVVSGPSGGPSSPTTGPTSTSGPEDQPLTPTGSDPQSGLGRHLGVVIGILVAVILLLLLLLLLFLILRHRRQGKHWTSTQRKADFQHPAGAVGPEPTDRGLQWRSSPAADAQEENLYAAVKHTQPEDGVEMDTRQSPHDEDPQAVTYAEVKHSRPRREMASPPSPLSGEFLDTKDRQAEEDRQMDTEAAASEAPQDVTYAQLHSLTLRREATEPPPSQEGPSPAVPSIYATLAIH

[12] = biological target: T3, human LILRB2 expressed on cells; assay: flow cytometry, Jurkat-LILRB2 cells; blocked ligand: APC HLA-G monomer tetramer; remark: listed apart in the source
[13] = biological target: T8, LILRA1 expressed on cells (human, UniProt O75019 17-489); assay: flow cytometry on CHO-LILRA1 cells (CHO-RA1), titrated antibody, labelled anti-human Fc, gMFI
T8 construct: whole, on cells; GFP-tagged; also called human LILRA1; CHO-LILRA1
T8 sequence (O75019 17-489): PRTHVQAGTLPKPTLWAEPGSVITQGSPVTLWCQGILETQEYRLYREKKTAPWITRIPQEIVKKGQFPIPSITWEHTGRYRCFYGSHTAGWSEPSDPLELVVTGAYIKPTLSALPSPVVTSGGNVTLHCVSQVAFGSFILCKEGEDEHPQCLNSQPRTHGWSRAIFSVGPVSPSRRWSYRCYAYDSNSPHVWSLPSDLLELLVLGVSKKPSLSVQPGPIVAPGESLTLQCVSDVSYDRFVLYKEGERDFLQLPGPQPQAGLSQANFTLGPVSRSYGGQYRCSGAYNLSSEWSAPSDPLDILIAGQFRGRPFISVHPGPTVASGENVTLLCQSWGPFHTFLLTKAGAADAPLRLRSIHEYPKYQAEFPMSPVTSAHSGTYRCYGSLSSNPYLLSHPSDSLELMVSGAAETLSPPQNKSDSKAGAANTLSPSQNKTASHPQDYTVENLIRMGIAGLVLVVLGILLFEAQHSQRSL

[14] = biological target: T5, LILRB2-ECD-HIS (SinoBiological Cat #: …); assay: BLI (Gator Prime), antibody on anti-hIgG Fc probe, monomeric LILRB2-ECD-HIS in solution
[15] = biological target: T9, LILRA3 expressed on 293T cells (UniProt Q8N6C8 24-439, limits assumed); assay: flow cytometry on 293T cells transiently expressing LILRA3, APC anti-human Fc; gMFI as fold to IgG staining
T9 construct: whole, on cells; GFP-tagged, transient
T9 sequence (Q8N6C8 24-439 limits assumed): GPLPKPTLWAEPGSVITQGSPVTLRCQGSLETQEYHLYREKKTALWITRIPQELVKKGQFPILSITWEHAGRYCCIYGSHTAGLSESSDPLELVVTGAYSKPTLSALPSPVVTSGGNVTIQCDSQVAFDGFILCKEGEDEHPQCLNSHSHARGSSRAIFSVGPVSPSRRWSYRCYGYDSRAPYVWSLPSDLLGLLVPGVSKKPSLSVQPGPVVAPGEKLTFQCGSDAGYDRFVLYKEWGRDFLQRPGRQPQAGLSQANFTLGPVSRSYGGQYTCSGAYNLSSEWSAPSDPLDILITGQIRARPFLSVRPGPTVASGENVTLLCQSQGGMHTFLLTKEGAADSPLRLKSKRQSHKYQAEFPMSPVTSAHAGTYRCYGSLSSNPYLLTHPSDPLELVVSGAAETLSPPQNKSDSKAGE

[16] = biological target: T3, human LILRB2 expressed on cells; assay: flow cytometry on CHO-LILRB2 cells, non-linear fit of the curves of FIG. 26B
[17] = biological target: T5, LILRB2-ECD-HIS (SinoBiological Cat #: …); assay: BLI (Gator), RB2-ECD-his
[18] = biological target: T3, human LILRB2 expressed on cells; assay: flow cytometry, CHO-LILRB2 cells
[19] = biological target: T10, LILRA4 expressed on 293T cells (UniProt P59901 24-499, limits assumed); assay: flow cytometry on 293T cells transiently expressing LILRA4, antibody 5 µg/mL, APC anti-human Fc; gMFI as fold to IgG staining
T10 construct: whole, on cells; GFP-tagged, transient
T10 sequence (P59901 24-499 limits assumed): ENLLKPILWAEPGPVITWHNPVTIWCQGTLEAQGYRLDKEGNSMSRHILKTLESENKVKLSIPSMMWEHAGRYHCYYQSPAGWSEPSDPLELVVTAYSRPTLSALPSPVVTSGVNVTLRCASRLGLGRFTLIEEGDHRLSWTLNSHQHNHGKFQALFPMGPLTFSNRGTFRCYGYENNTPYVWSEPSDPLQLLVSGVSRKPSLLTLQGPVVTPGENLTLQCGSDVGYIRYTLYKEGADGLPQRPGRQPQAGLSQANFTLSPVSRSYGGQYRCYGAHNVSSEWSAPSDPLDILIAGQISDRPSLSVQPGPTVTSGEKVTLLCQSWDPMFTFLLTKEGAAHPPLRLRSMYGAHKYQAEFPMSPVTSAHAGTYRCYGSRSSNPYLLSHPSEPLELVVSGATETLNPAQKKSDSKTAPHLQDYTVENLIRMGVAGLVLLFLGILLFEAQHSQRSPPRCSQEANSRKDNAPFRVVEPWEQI

[20] = biological target: T5, LILRB2-ECD-HIS (SinoBiological Cat #: …); assay: BLI (Gator), trace labelled 0.5 µg/mL; unit taken from the Average KD line
[21] = biological target: T2, LILRB1-ECD-HIS (SinoBiological Cat #: …); assay: BLI (Gator), RB1-ECD-his
[22] = biological target: T7, human LILRB1 expressed on cells; assay: flow cytometry on CHO-LILRB1 cells, non-linear fit of the curves of FIG. 26A
[23] = biological target: T3, human LILRB2 expressed on cells; assay: flow cytometry, Jurkat-LILRB2 cells; remark: listed apart in the source

EC50 [1]: 4 µg/mL and 26.6 nM
Kd [2]: 3.4 nM
IC50 [3]: 0.065 µg/mL
binding result [4]: no binding (tested: 5 µg/mL)
Kd [5]: 0.351 nM
Kd [6]: 3.61 nM
Kd [7]: 1.36 nM
EC50 [8]: 12.8 µg/mL
Kd [9]: 3.13 nM
EC50 (read off the curve) [10]: ~0.3 µg/mL
EC50 [11]: 0.326 µg/mL
IC50 (read off the curve) [12]: ~0.06 µg/mL
EC50 (read off the curve) [13]: ~0.5 µg/mL
Kd [14]: 0.286 nM
binding result [15]: no binding (tested: 5 µg/mL)
EC50 [16]: 0.128 µg/mL
MaxMFI [16]: 32600
Kd [17]: 0.469 nM
EC50 [18]: 0.21 µg/mL
gMFI (max) [18]: 21900
binding result [19]: binds
Kd [20]: 0.265 nM
Kd [21]: 2.12 nM
EC50 [22]: 0.218 µg/mL
MaxMFI [22]: 110000
EC50 [23]: 0.258 µg/mL
B1: D2M002-002 (antibody, V domains shown)
VH: EVQLQQSGPELVKPGASVKMSCKASGYTFTRYVMHWVKQKPGQGLEWIGYINPNNDGTKYNEKFKGKVTLTSDKSSSTAYMELSSLTSEDSAVYYCARGDLEILPYYDHARNAMDYWGQGTSVTVSS
VL: DVQMIQSPASLSASVGETVTITCRASENIYSYLAWYQQKQGKSPQLLVYNAKTLAEGVPSRFSGSGSGTQFSLKINSLQPEDFGSYYCQHFWSTPPTFGGGTKLEIK
notes: Hit from immunised mice; also called clone #2; anti-LILRB1/2 clone #2
